Data on 1 molecule can be found in patent US20100310549A1 (Bristol-Myers Squibb, published 2010).

The test deals with T1, full-length human KDR on CHO-KDR cells (human, UniProt P35968 20-1356).
T1 construct: whole, on cells; stably transfected CHO-K1 cells
As to the kind of experiment: flow cytometry on CHO-KDR cells, His6-tagged protein, anti-His6 MAb and Alexa Fluor 488 anti-mouse antibody. On the procedure: Binding of fibronectin-based scaffold protein to cell-surface KDR and Flk-1 was analyzed simultaneously on VEGF-R2-expressing and control cells by flow cytometry. CHO-pcDNA3 cells (control) were released from their dishes with trypsin-EDTA, washed in Dulbecco's PBS without calcium and magnesium (D-PBS⁻; Invitrogen), and stained for 30 minutes at 37° C. with 1.5 μM CMTMR (5-(and-6)-(((4-chloromethyl)benzoyl)amino)-tetramethylrhodamine) (Molecular Probes). The cells were washed in D-PBS⁻ and incubated for a further 30 minutes at 37° C., and then resuspended in blocking buffer (D-PBS710% fetal bovine serum) on ice. CHO-KDR or CHO-Flk cells were treated identically except that CMTMR was omitted. […] For cells treated with an anti-KDR mouse monoclonal antibody (Accurate Chemical, Westbury, N.Y.) or an anti-flk-1 goat polyclonal antibody (R&D Systems), the anti-His₆ step was omitted, and antibody binding was detected with the species-appropriate Alexa Fluor 488 conjugated secondary antibody (Molecular Probes). Following staining, cells were resuspended in 200 μl/well D-PBS⁻/1% FBS/1 μg/ml 7-aminoactinomycin D (7-AAD; Molecular Probes) and analyzed by flow cytometry on a FACSCalibur (Becton Dickinson, San Jose, Calif.) equipped with a […]. […]

T1 sequence (P35968 20-1356): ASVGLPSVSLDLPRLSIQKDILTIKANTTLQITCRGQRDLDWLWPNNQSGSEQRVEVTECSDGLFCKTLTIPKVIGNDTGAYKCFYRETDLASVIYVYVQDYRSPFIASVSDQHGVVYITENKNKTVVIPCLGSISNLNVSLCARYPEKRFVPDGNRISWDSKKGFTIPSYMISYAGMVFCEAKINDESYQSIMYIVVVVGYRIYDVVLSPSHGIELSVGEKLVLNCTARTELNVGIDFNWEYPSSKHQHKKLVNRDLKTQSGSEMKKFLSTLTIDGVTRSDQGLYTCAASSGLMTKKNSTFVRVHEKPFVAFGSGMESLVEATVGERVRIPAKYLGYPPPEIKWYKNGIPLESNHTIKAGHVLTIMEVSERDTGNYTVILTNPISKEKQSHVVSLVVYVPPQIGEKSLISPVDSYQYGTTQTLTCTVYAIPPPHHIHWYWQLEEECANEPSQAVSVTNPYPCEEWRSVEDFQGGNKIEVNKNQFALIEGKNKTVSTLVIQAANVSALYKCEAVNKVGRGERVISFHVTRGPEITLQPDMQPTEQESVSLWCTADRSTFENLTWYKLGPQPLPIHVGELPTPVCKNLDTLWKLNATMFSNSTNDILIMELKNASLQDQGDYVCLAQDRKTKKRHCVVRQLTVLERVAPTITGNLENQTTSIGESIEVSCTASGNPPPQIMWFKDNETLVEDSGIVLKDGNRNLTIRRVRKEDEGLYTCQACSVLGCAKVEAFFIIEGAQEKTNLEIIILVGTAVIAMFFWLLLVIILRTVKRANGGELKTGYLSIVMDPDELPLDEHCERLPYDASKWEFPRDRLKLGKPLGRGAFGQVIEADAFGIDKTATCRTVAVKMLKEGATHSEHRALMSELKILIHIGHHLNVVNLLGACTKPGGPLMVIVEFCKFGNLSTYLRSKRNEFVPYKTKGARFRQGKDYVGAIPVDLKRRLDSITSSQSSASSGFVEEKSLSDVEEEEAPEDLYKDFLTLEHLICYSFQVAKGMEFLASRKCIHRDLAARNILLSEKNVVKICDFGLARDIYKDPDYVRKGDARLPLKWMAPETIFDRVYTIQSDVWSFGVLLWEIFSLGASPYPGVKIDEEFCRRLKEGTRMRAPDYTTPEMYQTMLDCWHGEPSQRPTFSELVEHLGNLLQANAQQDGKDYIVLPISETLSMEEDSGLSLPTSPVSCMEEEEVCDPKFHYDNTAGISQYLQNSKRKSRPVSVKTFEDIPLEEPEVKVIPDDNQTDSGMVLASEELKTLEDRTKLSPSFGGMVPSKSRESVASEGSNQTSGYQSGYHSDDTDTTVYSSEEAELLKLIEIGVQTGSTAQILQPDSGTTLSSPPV

B1: WT fibronectin-based scaffold protein (wild-type 10Fn3), E. coli, His6 (other)
chain: VSDVPRDLEVVAATPTSLLISWDAPAVTVRYYRITYGETGGNSPVQEFTVPGSKSTATISGLKPGVDYTITGYAVTGRGDSPASSKPISINYRTEIDKPSQHHHHHH
notes: E. coli-expressed soluble form; N-terminal Met not described
Consider B1, for which the binding result is “no binding (tested: log[M] about -6.9 (about 1e-7 M))”.
